The results in this text go back to patent publication CN112279913A (TAIZHOU BAIYING BIOLOGICAL TECH CO LTD, dated 2021).

Some results are limits rather than exact numbers.

This assay addresses T1, 人IL-6重组蛋白 (human, UniProt P05231 30-212, limits assumed).
T1 construct: also called 白细胞介素-6; 白介素6
Nature of the assay: indirect ELISA, IL-6 recombinant protein coated at 2 μg/ml, purified antibody from 10 μg/ml in 3-fold dilutions, HRP goat anti-mouse IgG. (In general: An ELISA detects its analyte on a solid surface through an enzyme-linked reagent.)

B1: 抗人IL-6单克隆抗体 克隆019:8-3F8 (antibody, V domains shown)
VH: EVKLEESGGGLVQPGGSMKLSCAASGFTFSNYWMNWVRQSPEKGLEWVAEIRLRSNKYATHYAESVRGRFTISRDDSINYVYLQMNNLRAEDTGIYYCTRPRYEGTFDVWGAGTTVTVSS
VL: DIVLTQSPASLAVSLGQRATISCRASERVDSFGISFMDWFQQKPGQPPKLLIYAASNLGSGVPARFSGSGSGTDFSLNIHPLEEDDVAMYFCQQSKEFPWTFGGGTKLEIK
One may read the EC50 as the concentration that produces a half-maximal response. Take B1: the EC50 is under 0.025 µg/mL.

B2: 抗人IL-6单克隆抗体 克隆019:1-2H3 (antibody, V domains shown)
VH: QVQLQQSGPQLVRPGASVKISCKASGYSFNRSWMHWVKQRPGQGLEWIGMIDPSDTETRLNQKFKDKATLTVDESSSTAHMQFKRPTSEDSAVYYCARAYGFSIEFAYWGQGTLVTVSA
VL: DIQMSQTSSSLPASLGDRVTISCKASQDIRSYLNWYQQKPDGTVKLLIYYTSRLHSGVPSRFSGSGSGTDFSLTISNLEQEDIATYFCQQGATLPLTFGAGTKLELK
In the case of B2, the concentration for a half-maximal effect (EC50) is under 0.025 µg/mL.
